Assay results published in PMC10250246 (Nucleic Acids Research, 2023).
Substitutions are numbered along the chain they refer to. Names may count otherwise. Blank lines part the entries; values can stand above or below the binder they belong to.

Columns and labels:
[1] = biological target: T1, 10xHis-mRuby2-Spt6 (239-1451) (S. cerevisiae, UniProt P23615 239-1451); assay: native gel or EMSA
T1 sequence (looked up): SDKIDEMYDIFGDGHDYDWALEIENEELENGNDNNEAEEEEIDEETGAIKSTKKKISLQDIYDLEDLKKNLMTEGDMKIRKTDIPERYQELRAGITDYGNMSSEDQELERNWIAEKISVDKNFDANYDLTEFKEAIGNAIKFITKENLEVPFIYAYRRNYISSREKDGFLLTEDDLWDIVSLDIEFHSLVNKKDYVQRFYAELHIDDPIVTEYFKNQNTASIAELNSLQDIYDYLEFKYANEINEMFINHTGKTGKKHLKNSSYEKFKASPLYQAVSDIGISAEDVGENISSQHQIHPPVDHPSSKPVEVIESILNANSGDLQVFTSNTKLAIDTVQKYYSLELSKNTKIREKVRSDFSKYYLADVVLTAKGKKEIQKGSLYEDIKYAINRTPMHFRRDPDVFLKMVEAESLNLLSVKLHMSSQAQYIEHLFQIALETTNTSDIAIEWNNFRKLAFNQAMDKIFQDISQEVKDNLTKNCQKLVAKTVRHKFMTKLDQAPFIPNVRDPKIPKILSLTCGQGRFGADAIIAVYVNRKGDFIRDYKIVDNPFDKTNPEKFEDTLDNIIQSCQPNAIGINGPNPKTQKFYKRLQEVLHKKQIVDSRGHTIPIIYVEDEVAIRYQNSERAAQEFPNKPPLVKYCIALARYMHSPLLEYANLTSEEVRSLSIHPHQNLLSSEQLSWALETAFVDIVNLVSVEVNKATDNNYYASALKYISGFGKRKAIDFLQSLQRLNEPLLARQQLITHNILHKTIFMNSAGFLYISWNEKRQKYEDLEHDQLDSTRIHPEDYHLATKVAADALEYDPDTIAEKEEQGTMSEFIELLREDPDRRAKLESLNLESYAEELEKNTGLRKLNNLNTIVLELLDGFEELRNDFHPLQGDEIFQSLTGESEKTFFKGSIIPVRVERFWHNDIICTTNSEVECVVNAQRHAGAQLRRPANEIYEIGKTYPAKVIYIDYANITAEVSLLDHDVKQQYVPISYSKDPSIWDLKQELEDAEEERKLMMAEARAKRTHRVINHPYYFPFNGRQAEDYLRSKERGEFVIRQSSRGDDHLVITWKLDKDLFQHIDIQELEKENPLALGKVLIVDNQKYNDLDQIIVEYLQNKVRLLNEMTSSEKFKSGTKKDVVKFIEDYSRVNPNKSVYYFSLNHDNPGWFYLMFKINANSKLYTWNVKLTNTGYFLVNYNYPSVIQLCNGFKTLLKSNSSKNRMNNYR

[2] = biological target: T2, Spt6 (239-1451) (S. cerevisiae, UniProt P23615 239-1451); assay: fluorescence polarisation
T2 sequence (looked up): T1 sequence (looked up)

Kd [1]: ~320 nM | Kd [2]: 770 nM
B1: 10xHis-mClover-Cdc73 (natural protein, S. cerevisiae, UniProt Q06697 1-393, looked up)
chain: MANSLDRLREHLKNGDKLVLKNNEGQSTDDITKATMVETLSSDGSTQDSFPLNEETEIEIDGSLVQLRIIVHCWMNKDSSAADYLADCQNKQLTNVSFLQRTDLINWLSGNTESSQYLKAPGQKGETSDKVDIENKTLAGELSTVKSTTSASLENDSEVSDPVVVETMKHERILVDHNSALRGAKPINFGYLIKDAELKLVQSIKGSLRGSKLPPGHKGAHGRISKTNGSSGGPRKDPIILIPSAASSILTVANIKQFLLESKYVNPRNLPSVPNGLVNIEKNFERISRPIRFIIVDNTRMFTKPEYWDRVVAIFTTGHTWQFNNYQWNSPQELFQRCKGYYFHFAGDSVPQHVQQWNVEKVELDKNKRFKDVEVVRYFWHSLEKELISRGYR

binding result [1]: binds
B2: 10xHis-mClover-Cdc73 W321A (natural protein, S. cerevisiae, UniProt Q06697 1-393, looked up)
chain: B1 chain with W321A
